Test results published in US20240141072A1 (published 2024).

Tests used:
Assay in all cases: Octet BLI; biotinylated huDLL3-IgG1 fusion on streptavidin tips; single 50 nM trispecific, conditioned medium
[1] = biological target: T1, anti-DLL3 trispecific protein with DLL3 binding domain 42C03
T1 construct: trispecific, one chain
Procedure: (§1) Using the conditioned medium with known concentrations of the anti-DLL3 trispecific proteins, the relative binding affinities of the anti-DLL3 trispecific proteins toward human DLL3 protein were measured using a method where biotinylated version of human DLL3 protein were expressed as a human IgG1 fusion protein, and the binding affinity measurement was carried out in an Octet instrument with streptavidin tips.

[2] = biological target: T2, anti-DLL3 trispecific protein with DLL3 binding domain 53A09
T2 construct: trispecific, one chain
Procedure: as §1

[3] = biological target: T3, anti-DLL3 trispecific protein with DLL3 binding domain 53A04
T3 construct: trispecific, one chain
Procedure: as §1

[4] = biological target: T4, anti-DLL3 trispecific protein with DLL3 binding domain 42E05
T4 construct: trispecific, one chain
Procedure: as §1

[5] = biological target: T5, anti-DLL3 trispecific protein with DLL3 binding domain 51G02
T5 construct: trispecific, one chain; also called 51G2
Procedure: as §1

[6] = biological target: T6, anti-DLL3 trispecific protein with DLL3 binding domain 42B10
T6 construct: trispecific, one chain
Procedure: as §1

[7] = biological target: T7, anti-DLL3 trispecific protein with DLL3 binding domain 51F03
T7 construct: trispecific, one chain; also called 51F3
Procedure: as §1

[8] = biological target: T8, anti-DLL3 trispecific protein with DLL3 binding domain 42D06
T8 construct: trispecific, one chain
Procedure: as §1

[9] = biological target: T9, anti-DLL3 trispecific protein with DLL3 binding domain 51A03
T9 construct: trispecific, one chain
Procedure: as §1

[10] = biological target: T10, anti-DLL3 trispecific protein with DLL3 binding domain 42C11
T10 construct: trispecific, one chain
T10 sequence (chain, as listed by the source): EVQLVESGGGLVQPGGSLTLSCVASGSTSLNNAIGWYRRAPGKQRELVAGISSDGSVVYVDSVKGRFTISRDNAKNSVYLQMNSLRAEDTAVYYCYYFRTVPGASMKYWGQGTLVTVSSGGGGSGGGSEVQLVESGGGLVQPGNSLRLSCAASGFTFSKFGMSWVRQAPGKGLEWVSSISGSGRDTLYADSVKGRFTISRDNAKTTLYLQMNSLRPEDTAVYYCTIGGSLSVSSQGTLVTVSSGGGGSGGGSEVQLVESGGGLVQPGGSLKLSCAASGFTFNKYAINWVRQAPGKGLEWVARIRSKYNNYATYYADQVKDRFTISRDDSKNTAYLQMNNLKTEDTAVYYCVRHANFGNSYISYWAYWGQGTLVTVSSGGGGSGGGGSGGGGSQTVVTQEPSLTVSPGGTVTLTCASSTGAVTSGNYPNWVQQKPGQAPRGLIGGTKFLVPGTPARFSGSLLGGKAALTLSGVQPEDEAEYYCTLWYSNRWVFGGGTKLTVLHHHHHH
Procedure: as §1

[11] = biological target: T11, anti-DLL3 trispecific protein with DLL3 binding domain 52D04
T11 construct: trispecific, one chain; same domain order as the TAC protein m79; also called 52D4
Procedure: as §1

[12] = biological target: T12, anti-DLL3 trispecific protein with DLL3 binding domain 41D02
T12 construct: trispecific, one chain
T12 sequence (chain, as listed by the source): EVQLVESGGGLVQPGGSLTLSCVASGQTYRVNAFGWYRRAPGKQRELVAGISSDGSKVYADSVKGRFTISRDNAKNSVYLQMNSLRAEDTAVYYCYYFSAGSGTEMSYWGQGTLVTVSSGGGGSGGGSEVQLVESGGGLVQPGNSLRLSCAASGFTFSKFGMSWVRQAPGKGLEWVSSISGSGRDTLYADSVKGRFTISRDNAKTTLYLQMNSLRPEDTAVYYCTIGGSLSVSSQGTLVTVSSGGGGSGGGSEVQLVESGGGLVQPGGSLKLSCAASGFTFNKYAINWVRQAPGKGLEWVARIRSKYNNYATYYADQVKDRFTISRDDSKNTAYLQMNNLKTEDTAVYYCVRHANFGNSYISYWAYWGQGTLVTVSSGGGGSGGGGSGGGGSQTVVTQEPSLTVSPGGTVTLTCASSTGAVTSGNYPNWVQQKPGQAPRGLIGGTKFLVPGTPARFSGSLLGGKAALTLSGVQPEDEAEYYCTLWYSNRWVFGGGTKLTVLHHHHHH
Procedure: as §1

[13] = biological target: T13, anti-DLL3 trispecific protein with DLL3 binding domain 42D05
T13 construct: trispecific, one chain
T13 sequence (chain, as listed by the source): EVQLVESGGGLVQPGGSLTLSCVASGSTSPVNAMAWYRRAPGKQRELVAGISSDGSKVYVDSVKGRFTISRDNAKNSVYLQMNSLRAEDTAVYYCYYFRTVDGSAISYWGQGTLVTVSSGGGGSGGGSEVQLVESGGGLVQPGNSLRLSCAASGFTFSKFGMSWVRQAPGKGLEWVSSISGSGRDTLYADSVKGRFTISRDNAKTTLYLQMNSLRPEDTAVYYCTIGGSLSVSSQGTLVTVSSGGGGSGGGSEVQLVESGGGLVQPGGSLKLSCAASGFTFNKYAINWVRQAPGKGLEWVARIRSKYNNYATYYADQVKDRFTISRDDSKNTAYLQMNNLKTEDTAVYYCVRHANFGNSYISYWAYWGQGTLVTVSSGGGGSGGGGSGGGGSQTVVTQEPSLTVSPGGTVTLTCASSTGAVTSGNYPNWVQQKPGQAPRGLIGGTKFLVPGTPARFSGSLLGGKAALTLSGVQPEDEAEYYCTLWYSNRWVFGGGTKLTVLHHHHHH
Procedure: as §1

[14] = biological target: T14, anti-DLL3 trispecific protein with DLL3 binding domain 42H11
T14 construct: trispecific, one chain
Procedure: as §1

[15] = biological target: T15, anti-DLL3 trispecific protein with DLL3 binding domain 42F08
T15 construct: trispecific, one chain
Procedure: as §1

[16] = biological target: T16, anti-DLL3 trispecific protein with DLL3 binding domain 41E02
T16 construct: trispecific, one chain
Procedure: as §1

[17] = biological target: T17, anti-DLL3 trispecific protein with DLL3 binding domain 42A08
T17 construct: trispecific, one chain
T17 sequence (chain, as listed by the source): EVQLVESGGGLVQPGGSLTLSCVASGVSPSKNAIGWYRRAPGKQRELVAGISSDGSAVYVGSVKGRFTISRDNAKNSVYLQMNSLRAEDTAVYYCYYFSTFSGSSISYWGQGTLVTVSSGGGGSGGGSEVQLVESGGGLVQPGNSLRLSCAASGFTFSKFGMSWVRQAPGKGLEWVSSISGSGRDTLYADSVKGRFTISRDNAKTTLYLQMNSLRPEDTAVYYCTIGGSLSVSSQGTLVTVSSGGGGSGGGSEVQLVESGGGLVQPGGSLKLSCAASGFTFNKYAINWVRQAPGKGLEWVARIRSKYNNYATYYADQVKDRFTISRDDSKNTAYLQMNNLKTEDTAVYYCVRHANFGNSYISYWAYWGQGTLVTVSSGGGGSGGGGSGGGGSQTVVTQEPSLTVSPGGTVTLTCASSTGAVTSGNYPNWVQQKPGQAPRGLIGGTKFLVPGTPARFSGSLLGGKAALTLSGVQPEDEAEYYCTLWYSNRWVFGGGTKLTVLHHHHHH
Procedure: as §1

[18] = biological target: T18, anti-DLL3 trispecific protein with DLL3 binding domain 42E06
T18 construct: trispecific, one chain
Procedure: as §1

[19] = biological target: T19, anti-DLL3 trispecific protein with DLL3 binding domain 42E01
T19 construct: trispecific, one chain
T19 sequence (chain, as listed by the source): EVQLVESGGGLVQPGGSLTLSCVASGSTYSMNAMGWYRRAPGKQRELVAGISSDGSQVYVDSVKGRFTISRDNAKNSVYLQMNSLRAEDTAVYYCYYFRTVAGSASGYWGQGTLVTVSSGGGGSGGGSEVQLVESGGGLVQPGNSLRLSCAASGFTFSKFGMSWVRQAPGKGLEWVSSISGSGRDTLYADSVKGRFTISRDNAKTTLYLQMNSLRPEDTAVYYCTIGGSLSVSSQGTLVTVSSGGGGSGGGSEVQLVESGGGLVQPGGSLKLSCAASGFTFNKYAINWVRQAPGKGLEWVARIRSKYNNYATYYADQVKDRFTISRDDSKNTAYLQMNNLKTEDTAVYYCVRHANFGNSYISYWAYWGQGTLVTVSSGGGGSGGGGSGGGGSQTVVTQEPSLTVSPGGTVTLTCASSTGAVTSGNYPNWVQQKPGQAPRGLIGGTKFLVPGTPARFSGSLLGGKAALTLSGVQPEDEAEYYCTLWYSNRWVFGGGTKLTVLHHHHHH
Procedure: as §1

[20] = biological target: T20, anti-DLL3 trispecific protein with DLL3 binding domain 41D03
T20 construct: trispecific, one chain
Procedure: as §1

[21] = biological target: T21, anti-DLL3 trispecific protein with DLL3 binding domain 42F01
T21 construct: trispecific, one chain
T21 sequence (chain, as listed by the source): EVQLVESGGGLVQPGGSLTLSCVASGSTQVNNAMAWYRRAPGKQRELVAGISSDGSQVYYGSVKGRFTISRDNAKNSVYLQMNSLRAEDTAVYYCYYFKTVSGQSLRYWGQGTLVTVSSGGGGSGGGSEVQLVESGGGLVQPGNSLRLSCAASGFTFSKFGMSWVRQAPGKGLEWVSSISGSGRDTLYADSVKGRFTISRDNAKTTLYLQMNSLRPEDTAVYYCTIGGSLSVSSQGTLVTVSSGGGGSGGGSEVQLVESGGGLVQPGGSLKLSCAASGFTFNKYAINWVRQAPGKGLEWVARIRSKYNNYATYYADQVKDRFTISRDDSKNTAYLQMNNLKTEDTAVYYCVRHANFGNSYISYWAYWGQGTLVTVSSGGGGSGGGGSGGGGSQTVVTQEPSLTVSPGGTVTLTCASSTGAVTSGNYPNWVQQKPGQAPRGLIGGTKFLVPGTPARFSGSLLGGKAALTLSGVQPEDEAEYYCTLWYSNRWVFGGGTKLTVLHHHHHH
Procedure: as §1

[22] = biological target: T22, anti-DLL3 trispecific protein with DLL3 binding domain 51F04
T22 construct: trispecific, one chain
T22 sequence (chain, as listed by the source): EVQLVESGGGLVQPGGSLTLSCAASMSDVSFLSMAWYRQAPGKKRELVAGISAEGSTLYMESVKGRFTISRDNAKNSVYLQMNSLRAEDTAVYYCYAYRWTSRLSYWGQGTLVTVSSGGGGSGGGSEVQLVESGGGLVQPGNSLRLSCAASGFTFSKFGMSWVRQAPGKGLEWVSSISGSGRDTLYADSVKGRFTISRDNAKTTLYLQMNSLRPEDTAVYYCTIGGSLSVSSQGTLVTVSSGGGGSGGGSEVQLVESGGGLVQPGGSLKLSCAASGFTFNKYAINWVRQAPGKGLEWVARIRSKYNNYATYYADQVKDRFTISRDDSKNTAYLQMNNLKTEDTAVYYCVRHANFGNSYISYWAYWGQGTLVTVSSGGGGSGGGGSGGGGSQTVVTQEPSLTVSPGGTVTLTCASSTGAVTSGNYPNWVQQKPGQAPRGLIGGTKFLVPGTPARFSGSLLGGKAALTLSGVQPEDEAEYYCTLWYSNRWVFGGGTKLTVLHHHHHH
Procedure: as §1

[23] = biological target: T23, anti-DLL3 trispecific protein with DLL3 binding domain 51C02
T23 construct: trispecific, one chain
Procedure: as §1

[24] = biological target: T24, anti-DLL3 trispecific protein with DLL3 binding domain 41B11
T24 construct: trispecific, one chain
T24 sequence (chain, as listed by the source): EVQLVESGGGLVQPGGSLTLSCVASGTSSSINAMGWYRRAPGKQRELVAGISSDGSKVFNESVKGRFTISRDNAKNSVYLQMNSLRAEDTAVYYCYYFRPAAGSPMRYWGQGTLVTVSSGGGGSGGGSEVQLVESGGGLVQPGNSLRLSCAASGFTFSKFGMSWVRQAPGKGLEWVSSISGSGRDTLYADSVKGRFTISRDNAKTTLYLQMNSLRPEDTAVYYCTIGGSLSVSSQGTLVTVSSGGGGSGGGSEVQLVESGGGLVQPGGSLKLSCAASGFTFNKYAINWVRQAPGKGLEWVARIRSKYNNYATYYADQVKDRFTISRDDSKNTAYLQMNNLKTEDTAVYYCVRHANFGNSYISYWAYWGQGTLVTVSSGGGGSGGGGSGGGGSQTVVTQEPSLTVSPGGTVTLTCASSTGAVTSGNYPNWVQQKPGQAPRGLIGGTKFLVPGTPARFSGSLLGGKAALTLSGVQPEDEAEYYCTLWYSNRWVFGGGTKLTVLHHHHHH
Procedure: as §1

[25] = biological target: T25, anti-DLL3 trispecific protein with DLL3 binding domain 51B04
T25 construct: trispecific, one chain
T25 sequence (chain, as listed by the source): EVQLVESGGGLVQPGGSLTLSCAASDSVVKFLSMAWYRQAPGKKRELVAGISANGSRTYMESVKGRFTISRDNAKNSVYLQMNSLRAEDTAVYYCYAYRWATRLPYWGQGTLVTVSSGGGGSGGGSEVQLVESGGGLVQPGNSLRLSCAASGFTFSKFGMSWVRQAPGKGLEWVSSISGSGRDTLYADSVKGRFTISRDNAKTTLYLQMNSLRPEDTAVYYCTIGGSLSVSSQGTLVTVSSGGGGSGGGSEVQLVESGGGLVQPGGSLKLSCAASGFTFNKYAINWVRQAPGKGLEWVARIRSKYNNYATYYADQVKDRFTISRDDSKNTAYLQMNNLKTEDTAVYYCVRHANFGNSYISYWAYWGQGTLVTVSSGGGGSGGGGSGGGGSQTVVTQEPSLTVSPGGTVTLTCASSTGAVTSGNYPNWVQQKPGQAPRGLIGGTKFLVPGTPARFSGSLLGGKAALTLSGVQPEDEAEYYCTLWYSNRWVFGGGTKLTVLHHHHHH
Procedure: as §1

[26] = biological target: T26, anti-DLL3 trispecific protein with DLL3 binding domain 52B01
T26 construct: trispecific, one chain; also called 52B1
Procedure: as §1

[27] = biological target: T27, anti-DLL3 trispecific protein with DLL3 binding domain 41F07
T27 construct: trispecific, one chain
Procedure: as §1

Kd [1]: 0.88 nM
Kd [2]: 0.97 nM
Kd [3]: 0.42 nM
Kd [4]: 1.2 nM
Kd [5]: 1.3 nM
Kd [6]: 1.3 nM
Kd [7]: 1.4 nM
Kd [8]: 1.5 nM
Kd [9]: 2.2 nM
Kd [10]: 2.3 nM
Kd [11]: 0.5 nM
Kd [12]: 2.7 nM
Kd [13]: 2.7 nM
Kd [14]: 3.1 nM
Kd [15]: 3.2 nM
Kd [16]: 3.4 nM
Kd [17]: 3.6 nM
Kd [18]: 3.8 nM
Kd [19]: 4 nM
Kd [20]: 4.8 nM
Kd [21]: 5.5 nM
Kd [22]: 6.7 nM
Kd [23]: 7.5 nM
Kd [24]: 9.9 nM
Kd [25]: 16 nM
Kd [26]: 0.61 nM
Kd [27]: 25 nM
B1: biotinylated human DLL3 protein expressed as a human IgG1 fusion protein (Fc fusion, not shown: a dimerising Fc or GST)
chain: AGVFELQIHSFGPGPGPGAPRSPCSARLPCRLFFRVCLKPGLSEEAAESPCALGAALSARGPVYTEQPGAPAPDLPLPDGLLQVPFRDAWPGTFSFIIETWREELGDQIGGPAWSLLARVAGRRRLAAGGPWARDIQRAGAWELRFSYRARCEPPAVGTACTRLCRPRSAPSRCGPGLRPCAPLEDECEAPLVCRAGCSPEHGFCEQPGECRCLEGWTGPLCTVPVSTSSCLSPRGPSSATTGCLVPGPGPCDGNPCANGGSCSETPRSFECTCPRGFYGLRCEVSGVTCADGPCFNGGLCVGGADPDSAYICHCPPGFQGSNCEKRVDRCSLQPCRNGGLCLDLGHALRCRCRAGFAGPRCEHDLDDCAGRACANGGTCVEGGGAHRCSCALGFGGRDCRERADPCAARPCAHGGRCYAHFSGLVCACAPGYMGARCEFPVHPDGASALPAAPPGLRPGDPQRYL
modifications: biotinylated
